This assay deals with CD80-FC (UniProt P33681). The experiment in a line: ELISA, CD80-FC coated 4 µg/ml, biotin-PDL1-FC titrated. For orientation: In an ELISA, binding on a coated surface is turned into a signal by an enzyme label.
Chain of CD80-FC (P33681 35-242 limits assumed): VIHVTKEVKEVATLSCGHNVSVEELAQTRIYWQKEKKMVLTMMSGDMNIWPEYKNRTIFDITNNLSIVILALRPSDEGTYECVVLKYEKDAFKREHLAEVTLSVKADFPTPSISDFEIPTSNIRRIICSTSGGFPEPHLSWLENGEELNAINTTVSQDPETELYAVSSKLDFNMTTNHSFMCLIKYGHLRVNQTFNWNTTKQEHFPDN

Chain of Biotin QP004.3 (biotin-PDL1-FC) (Q9NZQ7 19-238 limits assumed): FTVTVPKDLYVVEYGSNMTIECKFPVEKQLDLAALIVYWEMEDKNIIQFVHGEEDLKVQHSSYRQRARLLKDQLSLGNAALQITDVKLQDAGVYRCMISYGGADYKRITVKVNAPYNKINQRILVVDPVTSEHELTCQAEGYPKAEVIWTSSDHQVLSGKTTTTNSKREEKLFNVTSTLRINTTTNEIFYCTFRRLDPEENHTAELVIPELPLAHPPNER

As to “Biotin QP004.3 (biotin-PDL1-FC) (from UniProt Q9NZQ7 19-238) (Fc fusion)”, the ELISA reading at 0 µg/ml Biotin-QP004.3 (blank) stood at 0.0484, the ELISA reading at 0.00064 µg/ml Biotin-QP004.3 was 0.048, the ELISA reading at 0.0032 µg/ml Biotin-QP004.3 stood at 0.0468 and the ELISA reading at 0.016 µg/ml Biotin-QP004.3 is 0.0668. The ELISA reading at 0.08 µg/ml Biotin-QP004.3 came out at 0.179, the ELISA reading at 0.4 µg/ml Biotin-QP004.3 is 0.591, the ELISA reading at 2 µg/ml Biotin-QP004.3 worked out at 1.87 and the ELISA reading at 10 µg/ml Biotin-QP004.3 was found to be 3.19.
